The values below are quoted from earlier work in paper PMC5244385.

As usually defined, the Kd is the free concentration of one partner at which half of the binding sites on the other are occupied at equilibrium, for simple one-to-one binding.

This data set deals with Fibrinogen (Homo sapiens) (UniProt P02671).
Sequence of UniProt P02671 (P02671 36-866, chain 1 of 3): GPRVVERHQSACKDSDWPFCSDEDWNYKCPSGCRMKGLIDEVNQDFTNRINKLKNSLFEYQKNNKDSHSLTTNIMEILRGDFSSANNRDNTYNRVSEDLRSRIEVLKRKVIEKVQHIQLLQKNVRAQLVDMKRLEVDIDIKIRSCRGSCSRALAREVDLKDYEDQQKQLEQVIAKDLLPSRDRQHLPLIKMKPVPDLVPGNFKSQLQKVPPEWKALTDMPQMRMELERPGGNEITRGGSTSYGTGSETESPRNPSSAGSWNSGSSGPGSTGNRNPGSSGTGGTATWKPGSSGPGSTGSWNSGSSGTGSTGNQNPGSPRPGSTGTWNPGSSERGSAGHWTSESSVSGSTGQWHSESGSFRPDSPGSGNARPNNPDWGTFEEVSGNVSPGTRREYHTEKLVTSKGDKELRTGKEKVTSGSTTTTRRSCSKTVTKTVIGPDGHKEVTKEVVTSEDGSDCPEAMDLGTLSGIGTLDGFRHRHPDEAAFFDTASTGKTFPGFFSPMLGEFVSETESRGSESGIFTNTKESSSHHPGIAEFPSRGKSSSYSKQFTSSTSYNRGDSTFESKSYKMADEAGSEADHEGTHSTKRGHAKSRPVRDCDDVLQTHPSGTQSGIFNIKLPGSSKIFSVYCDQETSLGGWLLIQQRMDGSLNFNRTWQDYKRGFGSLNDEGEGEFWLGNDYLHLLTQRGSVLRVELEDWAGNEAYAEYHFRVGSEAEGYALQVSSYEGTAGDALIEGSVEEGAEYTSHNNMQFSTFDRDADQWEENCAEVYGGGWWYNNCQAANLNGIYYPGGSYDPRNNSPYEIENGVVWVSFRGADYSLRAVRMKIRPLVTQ
Sequence of UniProt P02671 (P02675 45-491, chain 2 of 3, further chain): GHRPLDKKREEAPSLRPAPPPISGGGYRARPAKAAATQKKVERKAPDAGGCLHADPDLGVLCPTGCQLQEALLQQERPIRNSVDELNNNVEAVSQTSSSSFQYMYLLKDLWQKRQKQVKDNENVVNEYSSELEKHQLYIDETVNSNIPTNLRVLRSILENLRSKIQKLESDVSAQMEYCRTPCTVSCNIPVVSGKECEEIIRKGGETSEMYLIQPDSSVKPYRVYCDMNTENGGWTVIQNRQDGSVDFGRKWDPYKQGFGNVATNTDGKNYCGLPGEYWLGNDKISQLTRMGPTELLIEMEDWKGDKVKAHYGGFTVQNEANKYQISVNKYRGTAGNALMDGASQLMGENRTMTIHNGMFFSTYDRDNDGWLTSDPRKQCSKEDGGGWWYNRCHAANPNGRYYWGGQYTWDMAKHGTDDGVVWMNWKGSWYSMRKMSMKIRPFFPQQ
Sequence of UniProt P02671 (P02679 27-453, chain 3 of 3, further chain): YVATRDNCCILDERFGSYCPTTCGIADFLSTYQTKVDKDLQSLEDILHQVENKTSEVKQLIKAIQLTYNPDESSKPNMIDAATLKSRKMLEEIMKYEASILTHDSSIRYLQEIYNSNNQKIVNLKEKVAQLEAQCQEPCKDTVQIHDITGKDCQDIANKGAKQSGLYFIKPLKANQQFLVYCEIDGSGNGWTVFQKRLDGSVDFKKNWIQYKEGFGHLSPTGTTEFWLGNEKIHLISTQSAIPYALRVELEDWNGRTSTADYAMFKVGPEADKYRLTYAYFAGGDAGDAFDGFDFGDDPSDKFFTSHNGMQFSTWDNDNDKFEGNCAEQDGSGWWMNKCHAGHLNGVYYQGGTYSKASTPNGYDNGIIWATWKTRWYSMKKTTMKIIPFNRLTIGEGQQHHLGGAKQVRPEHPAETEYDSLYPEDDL

In the case of Clumping factor A (from UniProt Q53653), the Kd is 510 nM.
